{"source": "the DeepSol protein solubility set"}
{"assay": "soluble on expression in E. coli; label from the status in PepcDB or PDB records"}
{"sequence": "MILLSKQTPLGAGRHRKCYTHPDNARRCIKVIYNRDHGGDKEIRRELSYYAHLSRYLTDWSAIPRYYGTVETDCGTGYVYDMITDFNGAPSITLTEFAAQCRYEEDVAVLRRLLKKLKRYLLDNHIVTMSLKPQNILCQRISESEVVPVVCDNLGESTFIPLATWSTWCCERKLERVWQRFIAQPALAVALERDAQPKDKKRLALTSHEALEHHHHHH", "soluble on expression in E. coli": "not soluble"}
{"sequence": "MGSDKIHHHHHHMYEFNDTIRGTPKVTFNLKTTIGGKVLEDELNNGFGTFRTLTVSGRDVVDLEHQTTSVLGRNGEYFHNATVEVRKLEIKAKISGKDNKSMRLQYEKLNKLIVSHNQVFLSFSDEPDRNYLGIFKSKDVPEEVSNEQIIGLTFICYNPFKMSDVKTKKGTSIQNGGLFQTKPIITLNLSSPTKEIKLLHVESQKYIRLTGTYTTDEIKIDMATGKITQNGRNILGDLDMINSRYFELLPGNNTLQCANAAITAEFREVYL", "soluble on expression in E. coli": "not soluble"}
{"sequence": "IPEYVDWRQKGAVTPVKNQGSCGSCWAFSAVVTIEGIIKIRTGNLNQYSEQELLDCDRRSYGCNGGYPWSALQLVAQYGIHYRNTYPYEGVQRYCRSREKGPYAAKTDGVRQVQPYNQGALLYSIANQPVSVVLQAAGKDFQLYRGGIFVGPCGNKVDHAVAAVGYGPNYILIKNSWGTGWGENGYIRIKRGTGNSYGVCGLYTSSFYPVKN", "soluble on expression in E. coli": "soluble"}
{"sequence": "MRCGIAGLCARAKKVLGEDPAGGTLLVFRGRMGDRLKILHWDGQDFCLYYKVLERGHFPWPKATEGKVALTPAQMAMLWEGIDWRQPRWTSAPTRM", "soluble on expression in E. coli": "not soluble"}
{"sequence": "MVFMYIGTVMVEKYNKPHLTFGDQAAQLQLRGLIINNPDDCIGALEKIGYYRLSAYWYPFRKKKPKASRTTPFNYRLDEFEPKHTFEEAVALYRFDESLRRLLLEALGVIEIQLRTKIAYFAGKQDRFIHLKRELLDPIACCRVPKNSTQDSYQIWLHKYHKQIKRAGREDFIRHYQARYGNDIPIWIATEILDFGGVSKLFDFLPKQLKNQIALSFGAKEGTVVAGWIRNFNYIRNVSAHHSRLWNRLVITRIQAPNRNVVDPSIFHLADVKNRKSP", "soluble on expression in E. coli": "not soluble"}
{"sequence": "MYLTLQEWNARQRRPRSLETVRRWVRESRIFPPPVKDGREYLFHESAVKVDLNRPVTGSLLKRIRNGKKAKS", "soluble on expression in E. coli": "soluble"}
{"sequence": "MGSDKIHHHHHHMFLVISVVGSSNIDIVLKVDHFTKPGETQKAIEMNVFPGGKGANQAVTVAKIGEKGCRFVTCIGNDDYSDLLIENYEKLGITGYIRVSLPTGRAFIEVDKTGQNRIIIFPGANAELKKELIDWNTLSESDILLLQNEIPFETTLECAKRFNGIVIFDPAPAQGINEEIFQYLDYLTPNEKEIEALSKDFFGEFLTVEKAAEKFLELGVKNVIVKLGDKGVLLVNKNEKKHFPTFKVKAVDTTAAGDVFNGAFAVALSEGKNPEEAVIFGTAAAAISVTRLGAQSSIPAREEVEAFLKNL", "soluble on expression in E. coli": "soluble"}
{"sequence": "MIYFIRKKKWLKQLEKGEAMKYAILIGDGMADYPIEKLGNRTILQAARTPAMDSIAARGRAGLAKTVPDSFPPGSDVANMSILGYDPATYYSGRAPLEAASMGVALAADDVAFRCNLITTEHGMIKDYSAGHISSDEAEILIDTLDYELSTENIRFYPGISYRHLIVAGNNLGAETECTPPHDITGEKIDKYLPRGKDGEFFSELIEASKVVLELHPVNLKRVEEGKNPANSIWVWGQGYAPKFTAFMKLYGKKGAVISAVDLLKGIGIYAGLDVIEVHGATGYLDTNYEGKVRAAIEALKTRDLVFVHVEAPDEAGHEGSIEKKLKAVEDFDSRIVAPILEYAENSDEPFTILVLPDHPTPISVKTHTRDPIPFAIYRTDKPETDNVEAFDEESVKNGSMGLVKASDLIGILIKSLEHHHHHH", "soluble on expression in E. coli": "soluble"}
{"sequence": "MGSDKIHHHHHHMCMYVFVKERVESRSFIPEEKIFELLEKTKNPDPARVREIIQKSLDKNRLEPEETATLLNVEDPELLEEIFEAARTLKERIYGNRIVLFAPLYIGNDCINDCVYCGFRVSNKVVERRTLTEEQLKEEVKALVSQGHKRLIVVYGEHPNYSPEFIARTIDIVYNTKYGNGEIRRVNVNAAPQTIEGYKIIKSVGIGTFQIFQETYHRETYLKLHPRGPKSNYNWRLYGLDRAMMAGIDDVGIGALFGLYDWKFEVMGLLYHTIHLEERFGVGPHTISFPRIKPAINTPYSQKPEHVVSDEDFKKLVAIIRLSVPYTGMILTAREPAKLRDEVIKLGVSQIDAGSRIGIGAYSHKEDDEDRKRQFTLEDPRPLDQVMRSLLKEGFVPSFCTACYRAGRTGEHFMEFAIPGFVKNFCTPNALFTLQEYLCDYATEETRKVGEEVIERELQKMNPKIRERVREGLEKIKRGERDVRF", "soluble on expression in E. coli": "not soluble"}
{"sequence": "MSTINFANREINFKIVYYGPGLSGKTTNLKWIYSKVPEGRKGEMVSLATEDERTLFFDFLPLDIGEVKGFKTRFHLYTVPGQVFYNASRKLILRGVDGIVFVADSAPNRLRANAESMRNMRENLAEYGLTLDDVPIVIQVNKRDLPDALPVEMVRAVVDPEGKFPVLEAVATEGKGVFETLKEVSRLVLARVAGGS", "soluble on expression in E. coli": "soluble"}
{"sequence": "MEKNWYVVHTYSGYENKVKANLEKRVESMGMQDKIFRVVVPEEEETDIKNGKKKVVKKKVFPGYVLVEIVMTDDSWYVVRNTPGVTGFVGSAGSGSKPTPLLPGEAETILKRMGMDERKTDIDFELKETVKVIDGPFANFTGSIEEIDYDKSKVKVFVNMFGRETPVELEFTQIDKLLEHHHHHH", "soluble on expression in E. coli": "not soluble"}
{"sequence": "MSLAQIVTSTKSCTVNPLRMSQPLGAALAFMGLRNCMPLLHGSQGCTSFGLVLFVRHFRESIPLQTTAMSEVATVLGGFENVEQAIVNIVGRTKPDVIGICTTGVTEIKGDDLDGYIKMVRANHPELANVALVPVSTPDFKGAFEDGFAATVTRIVETLVETPAEGAAPDADRINVLAGSHLTPGDIDELRDIIEAFGLVPTFLPDISGSLDGHVPDDFTPTTHGGVSVAEVVAMGGAGHTLAFGEHMRKAAAALEAKAGVPFTLLSRVTGLAAADELMATLAKISGRPVPPKYRRQRSQLVDAMLDGHFYFGGKSVAIGAEPDMLLNIGGWLADMGCTVSAAVTTTTSPSLAQVPSDEVLIGDLEDLERRAEDCDLLVTHSHGRQAAERLSVPLFRMGLPMFDRLGAVHQVAVGYRGTRDLIFAIGNLFIANIKEPDVNSWRSASACPDQTDAEGHHHHHH", "soluble on expression in E. coli": "soluble"}
{"sequence": "DQALATALPGKWIHLRILALANAHIVIDEVHTLDHYQTALLENILPILAKLKTKITFLTATMPSWQRTKLLTAYGGEDLQIPPTVFPAAETVLPGQFNRTLIDSDSTTIDFTMEETSYDHLVESHVKWHQTTRLNAPHARIGLICNTVKRAQEIAAALEKTNDRIVLLHSRMTTEHRRRSAELLESLLGPNGNRKTITVVGTQAIEASLDIDLDILRTELCPAPSLVQRAGRVWRRNDPYRSSRITADHKPISVVFIAEAEDWQVLPYLRAETSRTQRWLEKHNQMFLPQMAQEFIDAATVDLDTATSEMDLDALALMGIHLMKADGAKARIQDVLNSDSKVSDFALLTSKNEIDEAQTRLIEEGTHLRIILGDENESIPGGWKHGLSSLLKLKASDRESLRTALLASIPLLVSEKQKQLLYQHN", "soluble on expression in E. coli": "not soluble"}
{"sequence": "INTVGYLEQKMFAAMVADNQMAMVMLNPKNLKASNGEEELAGQTWYWKVAPVATTQPLLKAFDVSVAAEKQASPIITVRSYVAK", "soluble on expression in E. coli": "soluble"}
{"sequence": "MRGSHHHHHHGSMQYALLFPGQGSQCIGMGKSFYEGHTLAKELFERASNALKVDMKKTLFEENELLKESAYTQPAIYLVSYIAYQLLNKQANGGLKPVFALGHSLGEVSAVSLSGALDFEKALKLTHQRGKMMQEACANKDASMMVVLGVSEESLLSLCQRTKNVWCANFNGGMQVVLAGVKDDLKALEPTLKEMGAKRVVFLEMSVASHCPFLEPMIFKFQELLEKSLKDKFHFEIISNATNEAYHNKAKAVELLSLQLTQPVRYQDCVKSNNDRVDIFFELGCGSVLKGLNKRLSNKPTISVGDNKGLDEAIEFLEEYV", "soluble on expression in E. coli": "soluble"}
{"sequence": "MAHHHHHHMVALEREYILGSFCELRIITSLSSTQLSKVTLRKPVEDEDTSTAERAEVFGTELIPGVPVHLPPGRSLSIFTSTGCTLLLVAAPTVLQRCYATSLGATWVRSLLDFHSHLERARVEARGRDDVGPRVLFVSDRHHCGASTYVRWLSNFAVRLGYHPLLLDGVLDTPAFAFPGSVALFHAQHCMDIEEEMNLTPGLYAQVGQSRVANPRLYQHWVQQLLPSGMEKMARSERCRVGGLFFDFGVVEPHAVEQAEAAAAAAVPSVDPTASASSAPAALGSDKSHTNPLDTLLDTIVAADIDHVCVVGSSWLRWKLVQRAWERFGGEGSMSIVQAMLDPRWNVPPEVDCGGGQHFKIFLLDSVELVRSVPVPLWNRQRWLQYFFGTPTSPVKPTLITLEASQVRVATVGAAAMDAMSTLLPMMDSEDVDRQKADVAAVSFITLQDVALKDRIVAISTATEYERSPDGELHRLPFSVFERRIRQSTVLGFALVESVTPERLTLLVSGCPLDKELGLCFLLTEEVLKS", "soluble on expression in E. coli": "not soluble"}
{"sequence": "MGSDKIHHHHHHMSRAIPAMPLAPASAALDLSKVKTLVCEPSLPIRQGIRLALNNVGIRDITEATTFLAAHQACKEGDHDFLLLNQEIETNDTAFMVRELRSGALGRDPFILTVMLLSSREEPKVRSAIDCGPDDLLLIPFAPDQLMNRLKAQIERRKPFVVTHDYIGPDRRAAPRPGATSATQFQVPNPVRARGTNVPRDRYDRMKQESIVTISVERIKRLAATMDWECNALTVSAREGRMTPESTYRSLLKLEQVTAELSLRVTKQLGHSTETIDSLTQYLPPVEDGSEQCKLFRC", "soluble on expression in E. coli": "not soluble"}
{"sequence": "MKKVKLIGTLDYGKYRYPKNHPLKIPRVSLLLRFKDAMNLIDEKELIKSRPATKEELLLFHTEDYINTLMEAERSQSVPKGAREKYNIGGYENPVSYAMFTGSSLATGSTVQAIEEFLKGNVAFNPAGGMHHAFKSRANGFCYINNPAVGIEYLRKKGFKRILYIDLDAHHCDGVQEAFYDTDQVFVLSLHQSPEYAFPFEKGFLEEIGEGKGKGYNLNIPLPKGLNDNEFLFALEKSLEIVKEVFEPEVYLLQLGTDPLLEDYLSKFNLSNVAFLKAFNIVREVFGEGVYLGGGGYHPYALARAWTLIWCELSGREVPEKLNNKAKELLKSIDFEEFDDEVDRSYMLETLKDPWRGGEVRKEVKDTLEKAKASS", "soluble on expression in E. coli": "soluble"}
{"sequence": "MGSDKIHHHHHHMASVMSNNNNNNNNNNASYMFTNPLSNTGGGLINEIKDAINEMEQLKVLELKQICKSLDLSITGKKAVLQDRIKQFLRKSCDIGHIDPWRPKAIKILIAKVRINSSLPKYSTLWETLKTGAFKHPVASGQLPVTALQSTALPPYSQQQALAYSFTSPFYKPIVQIPDANKKLKQSAGRGCTKMKFKVSKSNHDLLKSNKSYKLYLFSGFSIPFIYETVGHEAIDFPYPCELVFNGTKLEDNVKGLKKQNGTGNPANLTPYLKVPTEMNHLDLHYLNIDKEYSISCFIVEVFSPEALLGKILKRPKIIKQATTAYIKRTLNEQDDDDIITTSTVLSLQCPISCTRMKYPAKTDQCKHIQCFDALWFLHSQSQVPTWQCPICQHPIKFDQLKISEFVDNIIQNCNEDVEQVEISVDGSWKPIHNSSAVITDTVNQNHSVKNENQGTVKQEQDYDSRNAFDTNLRNGSNHNEPEIISLDSSDDEAFIPASKSFPTHVNPRNDQLRADIFPSESEGSSDYNPNHTSTPKGSPTMDQDNYQDAFQMRSFLNQGATTNINDTPTNNSSINSFVTATNGDSRIFYNRGPSTPLLPAVLQNLTNQTEAQRNPYGPNYNTTAQDRNLLGIEGDLPPIPPVDPNSEAETELPTRTTSAAHLPPYIHVSTSGHGDDGKIRKRRHSNVSIYIPKNPYATLMKRRPQANHAIMNKTLAQTNDFNTSAQDNSEVVDLTSD", "soluble on expression in E. coli": "not soluble"}
{"sequence": "MPRINSPHITGNYPSTPFIFYIPTSGQRPMQWSAEKLPEGLELDSKTGIISGVMTSKGDYTVTLKAENALGVSVKQLVIRIGDELLLEHHHHHH", "soluble on expression in E. coli": "not soluble"}
{"sequence": "VKLTEKQKAFCDYYIETLNATESYKKAGYKVKTDGAARVNASRLLTNANVRKYIEERMKQKESERIASQDEVLEFLTRVMRGQEVEEVVGFTEYGAVKEKKTPSARDRVKAAELLGKRYALFTEKVNVEGNMGVAIIDDIKEDDSDDAS", "soluble on expression in E. coli": "soluble"}
